Laboratory results: patent US6770446B1, “Cell systems having specific interaction of peptide binding pairs” (Wyeth, priority 1994, dated 2004)
“And” between values parts separate entries of the source, which are not always exact repeats. Equal values may be shown once.

Experiments:
[1] = target: RGS-Z fused to the Gal4 activation domain (RGS-Z-pACT2) (yeast; human) (UniProt O76081); assay: cell-based or functional assay
KDR = KDR (Homo sapiens, UniProt P35968)
[2] = target: T1, PRL and PRLR fusion proteins (Sus scrofa, UniProt Q6JTA8, M232L/S231T); assay: Yeast two-hybrid competition assay: free peptide co-expressed with PRL and PRLR fusion proteins, growth on selective medium; format: cell-based, porcine; conditions: free peptide expressed from pCUP in a strain with PRL and PRLR fusions
T1 construct: flank the extracellular domain of the PRLR, encoding amino acids 1-229; expressed in transfected cells; host or cells: Saccharomyces cerevisiae (URA- derivative of Y190; strains CY786/CY787)
T1 sequence (Q6JTA8 with tags, fused parts or gaps): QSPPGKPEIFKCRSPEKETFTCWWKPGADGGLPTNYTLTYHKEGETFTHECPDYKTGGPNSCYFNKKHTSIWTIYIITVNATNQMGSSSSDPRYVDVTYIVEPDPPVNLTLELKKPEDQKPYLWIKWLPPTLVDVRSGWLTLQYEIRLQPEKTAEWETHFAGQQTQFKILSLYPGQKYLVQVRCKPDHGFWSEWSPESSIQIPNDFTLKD
Excerpt: To expand and validate this technology, a similar system was developed using the peptide hormone prolactin (PRL) and its receptor. Prolactin is structurally related to GH and the prolactin receptor (PRLR) is also a member of the cytokine receptor superfamily. […] Mature porcine PRL is generated as a fusion to the GAL4 activation domain. Oligonucleotides are designed to pig PRL (obtained from GenBank; […] No. X14068), and used to generate the mature pig PRL protein hormone from a pig pituitary lambda gt11 library, using standard PCR methods. A 31 base 5' oligonucleotide includes an EcoRI site ([NT] ID NO: 7) and corresponds to sequences encoding amino acids 1-7. A 30 base 3' oligonucleotide contains an EcoRI site ([NT] ID NO: 8) and corresponds to a region of cDNA 3' to the endogenous termination codon. A 600 bp fragment is obtained, ligated into vector pCR 11, and confirmed by restriction enzyme digest and sequence analysis. The PRL cDNA is cloned into pACT-II via the EcoRI site. The extracellular domain of the porcine PRL receptor (PRLR) is generated as a fusion to GAL4 DNA binding domain. Oligonucleotides are designed based on sequence of the mouse PRLR (Davis and Linzer, 1989) A 31 base 5' oligonucleotide contains a […] ID NO: 9) while the 31 base 3' oligonucleotide contains a termination codon followed by a […] ID NO: 10). […]

[3] = target: T2, GH and GHR fusion proteins (Rattus norvegicus, UniProt P16310); assay: Yeast two-hybrid competition assay: free peptide co-expressed with GH and GHR fusion proteins, growth on selective medium; format: cell-based; parameters: key to Growth: +: scored for cell growth, indicated by a plus; conditions: for Effect of co-expressed free peptide on GH-GHR-dependent cell growth on selective medium: free peptide expressed from pCUP in a strain with GH and GHR fusions
T2 construct: encoding amino acids 1-247 of the rat GHR (Baumbach et al., 1989); expressed in transfected cells; host or cells: Saccharomyces cerevisiae CY770 (URA- derivative of Y190)
T2 sequence (P16310 19-265): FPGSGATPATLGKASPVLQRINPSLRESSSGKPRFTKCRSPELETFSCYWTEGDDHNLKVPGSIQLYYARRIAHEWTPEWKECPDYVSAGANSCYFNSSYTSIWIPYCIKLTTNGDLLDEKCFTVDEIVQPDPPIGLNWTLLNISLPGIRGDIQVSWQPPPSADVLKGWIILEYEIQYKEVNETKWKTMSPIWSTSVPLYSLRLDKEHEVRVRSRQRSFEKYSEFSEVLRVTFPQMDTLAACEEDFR

[4] = target: T3, KChIP1 fused to the Gal4 activation domain (hKChIP1-pACT2) (yeast; human, UniProt Q9NZI2-2 1-216, limits assumed); assay: cell-based or functional assay
T3 sequence (looked up): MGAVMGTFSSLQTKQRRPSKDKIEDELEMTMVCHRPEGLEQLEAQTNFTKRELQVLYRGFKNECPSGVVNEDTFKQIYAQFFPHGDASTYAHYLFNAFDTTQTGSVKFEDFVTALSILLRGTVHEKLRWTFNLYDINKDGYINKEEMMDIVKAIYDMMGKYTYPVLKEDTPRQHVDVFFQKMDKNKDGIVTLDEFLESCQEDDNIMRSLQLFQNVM

[5] = target: T4, extracellular domain of rat growth hormone receptor (GHR, amino acids 1-247) fused to the Gal4 DNA binding … (yeast; rat, UniProt P04386 1-147; P16310 19-265); assay: yeast two-hybrid, HIS3 growth on selective medium (strain CY722)
T4 construct: Expressed inside yeast (two-hybrid); also called GHR fusion; GHR-GAL4 fusion; not shown: polylinker residues of pAS2; not described

[6] = target: T4, extracellular domain of rat growth …; assay: in vivo competition in yeast two-hybrid, free GH from pCUP (strain CY781)

Chain of KDR (P35968 20-764 limits assumed): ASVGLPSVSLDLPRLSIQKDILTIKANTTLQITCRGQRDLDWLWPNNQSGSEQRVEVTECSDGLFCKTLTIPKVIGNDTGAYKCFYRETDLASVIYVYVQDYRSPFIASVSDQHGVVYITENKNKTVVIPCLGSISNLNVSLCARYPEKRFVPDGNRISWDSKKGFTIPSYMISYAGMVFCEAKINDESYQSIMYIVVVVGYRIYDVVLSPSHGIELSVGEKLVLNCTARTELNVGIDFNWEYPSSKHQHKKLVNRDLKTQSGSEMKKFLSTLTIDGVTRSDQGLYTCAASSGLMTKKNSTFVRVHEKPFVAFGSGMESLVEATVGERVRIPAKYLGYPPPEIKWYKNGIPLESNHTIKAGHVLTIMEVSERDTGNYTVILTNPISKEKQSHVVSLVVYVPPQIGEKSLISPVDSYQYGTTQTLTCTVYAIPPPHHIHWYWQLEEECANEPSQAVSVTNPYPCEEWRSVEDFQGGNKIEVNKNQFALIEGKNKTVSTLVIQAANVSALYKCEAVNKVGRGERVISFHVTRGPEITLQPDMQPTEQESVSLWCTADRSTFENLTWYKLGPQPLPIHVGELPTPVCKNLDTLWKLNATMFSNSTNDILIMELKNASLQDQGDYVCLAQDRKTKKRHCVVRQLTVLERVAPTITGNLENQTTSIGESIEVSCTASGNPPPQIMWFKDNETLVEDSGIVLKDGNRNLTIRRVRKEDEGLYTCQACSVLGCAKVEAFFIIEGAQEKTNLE
Chain of KDR (P35968 20-764 limits assumed): as above

Which firefly luciferase activity, ybn66L in a 75:25 mix with ybn77L (OD 0.25 and 0.15) (luminescence units) [1] does the source give for “constitutively active G-alphaZ Q205L fused to the Gal4 DNA binding domain (Q205L/GaZ-pGBKT7) (from UniProt P04386 1-147; P19086 1-355)” here?
The firefly luciferase activity, ybn66L in a 75:25 mix with ybn77L (OD 0.25 and 0.15) (luminescence units) was 950000.

What about the increase in Renilla luciferase activity, strain ybn70L [1] of the same molecule?
Its increase in Renilla luciferase activity, strain ybn70L is 40 fold.

What about the induction of luciferase activity, interaction strain (ybn66L) against control strains [1] of the same molecule?
The induction of luciferase activity, interaction strain (ybn66L) against control strains was 5 fold and 10 fold.

With VEGF as the molecule, how does the “Growth on selective media of strain expressing two KDR receptor fusion proteins plus free ligand” value (KDR) read?
Its value is “substantial growth on selective media”.

B1: PRL: mature porcine prolactin expressed as free peptide from pCUP plasmid (protein)
chain: LPICPSGAVNCQVSLRDLFDRAVILSHYIHNLSSEMFNEFDKRYAQGRGFITKAINSCHTSSLSTPEDKEQAQQIHHEVLLNLILRVLRSWNDPLYHLVTEVRGMQEAPDAILSRAIEIEEQNKRLLEGMEKIVGQVHPGIKENEVYSVWSGLPSLQMADEDTRLFAFYNLLHCLRRDSHKIDNYLKLLKCRIIYDSNC
modifications: left off: large carriers; small tags and cut ends
notes: mature porcine prolactin expressed as free peptide from pCUP plasmid
For B1, which “Effect of co-expressed free peptide on PRL-PRLR-dependent cell growth on selective medium” value [2] is on record?
Its value is “growth is abrogated”.

And the “Effect of co-expressed free peptide on GH-GHR-dependent cell growth on selective medium” value [3]?
Its value is “grows on selective medium”.

And the Growth ([3]; strain with GH and GHR fusions plus free peptide expressed from pCUP, selective medium, 3 to 5 days at 30 C)?
Its Growth is “+”.

B2: N-terminus of the potassium channel 4.3 (hKv4.3N) fused to the Gal4 DNA binding domain (hKv4.3N-pGBT9) (other, yeast;human, UniProt P04386 1-147, looked up)
chain: MKLLSSIEQACDICRLKKLKCSKEKPKCAKCLKNNWECRYSPKTKRSPLTRAHLTEVESRLERLEQLFLLIFPREDLDMILKMDSLQDIKALLTGLFVQDNVNKDAVTDRLASVETDMPLTLRQHRISATSSSEESSNKGQRQLTVSMAAGVAAWLPFARAAAIGWMPVANCPMPLAPADKNKRQDELIVLNVSGRRFQTWRTTLERYPDTLLGSTEKEFFFNEDTKEYFFDRDPEVFRCVLNFYRTGKLHYPRYECISAYDDELAFYGILPEIIGDCCYEEYKDRKRENAERLMDDNDSENNQESMPSLSFRQTMWRAFENPHTST
Which “increase in Renilla luciferase activity, strain ybn77L” value [4] does the source give for B2 here?
The value was 25 fold.

And the “increase in luciferase activity (Gal1/10-luciferase reporter), both fusions against one fusion plus empty vector” value [4]?
The value was 30 fold.

What about the “increase in luciferase activity (low copy CEN Gal-luciferase reporter Kp132), test strain against negative control strain” value [4] of the same molecule?
Its value is 100 fold.

B3: porcine growth hormone (GH) fused to the Gal4 activation domain (GH in pACT-II) (ligand, UniProt P01248 27-216, looked up, not shown: large carriers; small tags and cut ends)
chain: FPAMPLSSLFANAVLRAQHLHQLAADTYKEFERAYIPEGQRYSIQNAQAAFCFSETIPAPTGKDEAQQRSDVELLRFSLLLIQSWLGPVQFLSRVFTNSLVFGTSDRVYEKLKDLEEGIQALMRELEDGSPRAGQILKQTYDKFDTNLRSDDALLKNYGLLSCFKKDLHKAETYLRVMKCRRFVESSCAF
notes: mature; Expressed inside yeast (two-hybrid); also called GH-Gal4 fusion protein; GH fusion
Does B3 bind [5]?
Result: binds

B4: GH: mature porcine growth hormone expressed as free ligand from pCUP plasmid (protein, UniProt P01248 27-216, looked up)
Somatotropin: B3 chain
B4 was tested. Which “Effect of co-expressed free peptide on GH-GHR-dependent cell growth on selective medium” value [3] did it give?
Its value is “block GH-GHR-dependent cell growth on selective medium”.

B5: free porcine growth hormone expressed from pCUP (GH-pCUP) (ligand, UniProt P01248 27-216, looked up)
chain: B3 chain
notes: mature; Non-fusion GH; also called free GH; free ligand
Does B5 bind [6]?
Result: binds
